The values that follow come from the nanobody polyreactivity screen of Harvey et al. (2022).

A short description of this data set: yeast display, Sf9 membrane polyspecificity reagent, FACS + sequencing; frameworks hold sequencing errors. Summed up:
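Galactose-induced (36–48 hours) yeast carrying a synthetic nanobody display library were exposed to 10% biotinylated, detergent-solubilized Sf9 membrane reagent at 4 °C for 1 hour. FACS followed streptavidin microbead enrichment, using low and high (top ~1%) gates for expression (anti-HA) and reagent binding (streptavidin). Colony PCR, MiSeq 2 × 250 sequencing and CDR-length filtering followed. Labels for polyreactivity reflect the gate of origin.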
On to “QVQLVESGGGLVQAGGSLRLSCAASGSIFSSNTMGWYRQAHGKERELVAAITVSGGRTYYADSVKGRFTISRDNAKNTVYLQMNSLKPEDTAVYYCATRWFGNSYSYRAYDYWGQGTQVTVSS”, for which the “polyreactivity (PSR sort gate)” value is listed as “high polyreactivity”.

As to “QVQLVESAGGLVQAGGSLSLSCAASGLTFHYYHMGWYRQATGKETELVAAITSSGGRTYYADSVKGRFTISRDNEKNTVFLQMNSLKPEDTAVYFCAADIYPDWIYLLYGYWGQGTQVTVSS”, the “polyreactivity (PSR sort gate)” value is “low polyreactivity”.

Turning to “QVQLVESGGGLVQAGGSLRLSCAASGSIFLSNMGWYRQAPGKERELVAAISRNGGSTYYADSVKGRFTISRDNAKYSVYLQMNSLKPEDTAVYYCAVQRYWGQGTQVTVSS”, the “polyreactivity (PSR sort gate)” value was “high polyreactivity”.

On to “QVQLVESGGGLVQAGGSLRLSCAASGFIFRYYAMGWYRQAPGKERELVATISASGGRTYYADSVKGRFTISRDNAKNTVYLQMNSLKPEDTAVYYCAVRPYWLGTYAPVAFDYWGQGTQVTVSS”, for which the “polyreactivity (PSR sort gate)” value is “high polyreactivity”.

On to “QVQLEESGGGLVQAGGSLRLSCAASGSTFYEYAMGWYRQAPGKERELVAAITTVGSTNYADSLKGRFTISRDNAKNTVYLQMNSLKPEDTAVYYCNKRPVILYDYWGLGTQVTVSS”, for which the “polyreactivity (PSR sort gate)” value is “low polyreactivity”.

On to “QVQLVESGGGLVQAGGSLRLSCAASGSTFSYYAMGWYIQAAGKERELVADITLNGGDTYYADSVKGRFTISRDNAKNTVYLQMNSLKPEDTAVYYCAKDSTADELTGFDYWGQGTQVTVSS”, for which the “polyreactivity (PSR sort gate)” value is reported as “low polyreactivity”.

With “QVQLVESGGGLVQAGGSLRLSCAASGFIFWKYAMGWYRPAPGKERELVAAISRSGGRTYYADSVKGRFTISRDNAKNTVYLQMNSLKPEDTAVYYCAKDSATYPYGTVGEYNYWGQGTQVTVSS”, the “polyreactivity (PSR sort gate)” value is “high polyreactivity”.

For “QVQLQESGGGLVLAGGSLRLSCSASGNISVYGSMGWYRQAPGKVREFVATIDPGTNTNYADSVKDRFTISRDNAKNTVYLQMNSLKPEDTAVYYCAVEAGSDWPYRYWGQGTQVTVSS”, the “polyreactivity (PSR sort gate)” value is on record as “low polyreactivity”.

Turning to “QVQLVESGGGLVQAGGSLRLSCAASGYTFGSNAMGWYRQAPGKERELVADIDWSSGNTYYADSVKGRFTISRDNAKNTVYVQMNSLKPEDTAVYYCAAELLIYYSWYWYDYWGQGTQVTVSS”, the “polyreactivity (PSR sort gate)” value is listed as “high polyreactivity”.

Consider “QVQLVESGGGLVQAGGSLRLSCAASGRTFFGYARGWYRQAPGKEREFVARISWRGTSTTYADSVKGRFTISRDNAKNTVYLEMNSLKPEDTAVYYCAASPYGLRVYFTVGYWGQGTQVTVSS”, for which the “polyreactivity (PSR sort gate)” value is reported as “high polyreactivity”.

As to “QVQLVESGGGLVQAGGSLRLSCAASGRTLVRYTMGWYRQAPGKERELVASISQRGGTTYYADSVKGRFTISRDNAKNTVYLQMNSLKPEDTAVYYCNKASVSGSSGGGYESWGQGTQVTVSS”, the “polyreactivity (PSR sort gate)” value is given as “low polyreactivity”.

Consider “QVQLVESGGGLVQAGGSLRLSCAASGFTFSAYAMGWYRQAPGKERELVVAISLSGGSTYYADSVKGRFTISRDNAKNTVYLQMNSLKPEDTAVYYCNADSYWHWGEWLYAPYDYWGQGTQVTVSS”, for which the “polyreactivity (PSR sort gate)” value is “low polyreactivity”.

With “QVQLVESGGGLVQAGGSLRLICAASGFIFFGNALGWYRQAPGKERELVAVITWSGGSTYADSVKGRFTISRDNAKNTVYLLMNSLKPEDTAVYYCAFVTPYWSFYEQVIPSNYWGQGTQVTVSS”, the “polyreactivity (PSR sort gate)” value was “low polyreactivity”.

In the case of “QVQLVESGGVLVQAGGSLRLSCAASGSTLSPYVMGWYRQAPGKERELVATISRSGGRTYYADSVKGRFTISRDNAKNTVYLQMNSLKPEETAVYYCAARTYYWGALIVSYDYWGQGTQVTVSS”, the “polyreactivity (PSR sort gate)” value is “low polyreactivity”.

Take “QVQLVESGGGLVQAGVILRLSCAASGRIITTYAMGRYRQAPGKERELVAAISARGGRTYYADSVKGRFTISRDNAKNTVYLQMNSLKPEDTAVYYCAAVSIQAYTRRQYDWGQGTQVTVSS”: the “polyreactivity (PSR sort gate)” value is reported as “high polyreactivity”.

“QVQLVESGGGLVQAGGSLRLSCAASGFIFKHNALGWYRQAPGKERELVAAISWSGDSTYYADSVKGRFTISRDNAKNTVYLQMNSLKPEDTAVYYCAAVRALRKVRDYYYWGQGTQVTVSS”: the “polyreactivity (PSR sort gate)” value is listed as “high polyreactivity”.

As for “QDQLVESGGGLVQAGGSLRLSCAGSGSTFKRYAMGWYRQAPGKDRELVAAISRRGGSTYYADSVKGRFTISRDNAKNTVYLQMNSLKPEDTAVYYCAARGTGNIYDYWGQGTQVTVSS”, the “polyreactivity (PSR sort gate)” value was “high polyreactivity”.

In the case of “QVQLVESGGGLVQAGGSLRLSCAASGSTFGYYAMGWYRQAPVKERELVAAISAGDRTYYADSVKGRFTISRDNATNTLYLQMNSLKPEDTAVYYSAARPLRSRNGYYWGQGTQGTVSS”, the “polyreactivity (PSR sort gate)” value was “high polyreactivity”.

As to “QVQLVESGGGLVQAGGSLRLTCAASGFILSSNAMGWYRQAPGKERELVAAITRSGGSTYYADSVKGRFTISRDNAKNTVYLEMNSLKPEDTAVYYCNRLYYSGSGASLDYWGQGTQVTVSS”, the “polyreactivity (PSR sort gate)” value is reported as “high polyreactivity”.

Regarding “QVQLVESGGGLVQAGGSLRLSCAASGRIFRYYAMGWYRQAPGKERELVAGITGSGTTNYADSVKGRFTISRDNAKNTVYLQMNSLKPEDTAVYYCNADRYTFWYRYERGYWGQGTQVTVSS”, the “polyreactivity (PSR sort gate)” value was “high polyreactivity”.

With “QVQLVESGGGLVQAGGSLRLSCAASGRIFYDNAMGWYRQAPGKERELVAAISYSGDSTYYADSVKGRFTISRDNAKNTVYLQMNSLKPEDTAVYYCAAVYISQGAFAYDYWGQGTQVTVSS”, the “polyreactivity (PSR sort gate)” value is reported as “low polyreactivity”.

In the case of “QVQLQESGGGLVQAGGSLRLSCAASGNISVTGFMGWYRQATGKERELVASIGIGGTTYYADSVKGRFSISRDNAKNTVYLQMNSLKPEDTAVYYCAARYLYYAYSYWGQGTQVTVSS”, the “polyreactivity (PSR sort gate)” value is reported as “low polyreactivity”.

Consider “QVQLVESGGGLVQAGGSLRLSCAASGRTFWDYGMGWYRQAPGKERELVATISGNGGDTYYADSVKGRFTISRDNAKNTVYLQMNSLKPEDTAVYYCAADYRFYRTDRHYDYWGQGSQVTVSS”, for which the “polyreactivity (PSR sort gate)” value is “low polyreactivity”.

Regarding “QVQLVESGGGLVQAGGSLRLTSAGSGGILPKNAMGWSRQAPGKERELVADISTRGTSTYYADSVKGRFTISRDIAKNTVYLQMNSVKPEVTAVYYCANCRDYIGYDYWGQGSQVTVSS”, the “polyreactivity (PSR sort gate)” value was “low polyreactivity”.

On to “QVQLVESGGGLVQAGASLRLSCAASGRTFAYYAMGWYRQAPGKERELVATITSSVGRTYYADSVKGRFTISRDNAKNTVYLQINSLKPEDTAVYYCNASDWGRTRGGGYPWLYRYDYWGQGTQVTVSS”, for which the “polyreactivity (PSR sort gate)” value is recorded as “low polyreactivity”.

With “QVQLVESGGGLVQAGGSLRLSCAASGFTFRYYAMGWYRQAPGKEREFVAAISWSGGSTYYADSVKGRFTISRDNAKNTVYLQMNSLKPEDTAVYYCNRVPRARKGDYWGQGTQVTVSS”, the “polyreactivity (PSR sort gate)” value is listed as “high polyreactivity”.

With “QVQLVESGGGLVQAGGSLRLSCAASGLIIGYNAMGLYRQAPGKERELVAAISRSGTHTYYADSVKGRFTISRDNAKNTFNLQMNSLIPEDTAVYYCNATNRRWHRPYSTYWYYYWGQGTQVTVSS”, the “polyreactivity (PSR sort gate)” value is given as “high polyreactivity”.

For the sequence “QVQHVESGGGLVQAGGSLRLSCAASGFMFYSYAMGWYRQPPGKEREFVAAITEDGDSSYYADSVKGRFTISRDNAKKTVYLQMNSLKPEDTAVYYCNTDLTFNGTSGDYDYWGQGTQVTVSS”, the “polyreactivity (PSR sort gate)” value is “low polyreactivity”.

Take “QVQLVESGGGLVQAGGSLRLSCAASGSNFHPNAMGSCRQAPGKERELVAAITKSGGSTYYADSVKGRFTISRDNAKNTVYLQMNSRKPEDTAVYYCNALRYRRVGTLGYDYWGQATQVTVSS”: the “polyreactivity (PSR sort gate)” value is given as “high polyreactivity”.

In the case of “QVQLVESGGGLVQAGGSLRLSCAASGRIIYPYALGWYRQAPGKERELVAAISSGSSTNYADSVKGRFTISRDNAKNTVYLQMNSLQPEDTAVYYCNADLVSGVVYDSDYWGQGTQVTVSS”, the “polyreactivity (PSR sort gate)” value was “low polyreactivity”.

For “QVQLVESGGGLVQAGGSLRLSCAASGFTFVRYTMGWYRQSPGKEREMVAAINRSGGNTYYADSVKGRFTISRDNAKNTVYLQMNSLKPEDTAVYYCAAGYYVQVSLKDYYWGQGTQVTVSS”, the “polyreactivity (PSR sort gate)” value was “high polyreactivity”.

Turning to “QVQLVEEGGGLVQAGGTRRLSCAASGSTFTVYVMGWYRQAPGQERELVAAINLSGGRTYYADSVKGRFTISRDNAKNTVYLQMNSLKPEDTAVYYCAADGSTWGDYRTYGYWGQGTLVTVSS”, the “polyreactivity (PSR sort gate)” value is reported as “low polyreactivity”.

In the case of “QVQLVESGGGLVQAGGSLRLSCAASGSTFPYNAMGWYRQAPGKERELVAAITSSGRTNYADSVKGRFTISRDNANNTVYLQMNSLKPEDTAVYYCAAARWYAHRVDYWGQGTQVTVSS”, the “polyreactivity (PSR sort gate)” value is given as “low polyreactivity”.

With “QVQLVESGGGLVQAGGSLRLSCAASGFIFTYNAMGWYRQAPGKERELVAAMNSGGITYYADSVKGRFTISRDNAKNPVYLQMNSLKPEDTAVYYCAKRRQIGWITYDYCGQGTQVTVSS”, the “polyreactivity (PSR sort gate)” value is given as “low polyreactivity”.

For “QVQLVESGGGLVQAGGSLRLSCAASGGIFDGNAMGWYRQAPGKERELVAAISSGGITKYADSEKGRFTISRDNAKNTVYLQMNSLKPEDTAVYYCAASWYRYRFIRYDYWGQGTQVTVSS”, the “polyreactivity (PSR sort gate)” value is recorded as “high polyreactivity”.

Take “QVQLVESGGGLGQAGGSLRLSCAASGLIFSPYDMGWYRQAPGKERELVGAISNGDSTNYADSVKGRFTISRDNAKNTVYLQMNSLKAEDTAVYYCNAAIPSWLEYEYWGQGTQVTVSS”: the “polyreactivity (PSR sort gate)” value is “low polyreactivity”.

“QVQLVESGGGLVQAGGSLRLSCAASGRTFEYYAMGWYRQAPGKERELVAGISWSGGSTYYADSVKGRFTISRDNAKNTVYLQMNSLKPEDTAVYYCNARYLPRSTIYDYWGQGTQVTVSS”: the “polyreactivity (PSR sort gate)” value is “high polyreactivity”.

As to “QVQLVESGGGLVQAGGSLRLSCAASGSIFSYNAMGWDRQAPGKESELVAAITSGGGTNYADSVKGRFTISRDNAKNTVYLQINSLKPEDTAVYYCNAVPNYYDYDSWGQGTQVTVSS”, the “polyreactivity (PSR sort gate)” value was “high polyreactivity”.

Take “QVQLVESRGGLVQAGGSLRLSCAASGFIFGYYALGWYRQAPGKEWELVAAITNGGRTYYADSVKGRFTISRDNAKNTVYLQMISLKPEDTAVYYCAARPSWWSALFDSWGQGTQVTVSS”: the “polyreactivity (PSR sort gate)” value is “low polyreactivity”.

On to “QVQLVESGGGLVQAGGSLRLSCAASGIIFYLYTMGWYRQAPGKERELVAAISKSGARTYYADSVKGRFTISRDNAKNTVYLQMNSLKPEDTAVYYCAADVSVSGYYYWGQGTQVTVSS”, for which the “polyreactivity (PSR sort gate)” value is on record as “high polyreactivity”.

As for “QVQLVESGGGLVQAGGSLRLSCAASGGYGMGWYRQAPGKERELVAAISYSGGSTYYADSVKGRFTISRDNAKNTVYLQMNSLKPEDTAVYYCNVLRGSLNGWWPGYDYWGQGTQVTVSS”, the “polyreactivity (PSR sort gate)” value was “low polyreactivity”.
